Substitutions are numbered along the chain they refer to.
B1: 1H8 antibody (human CD33V-set antibody clone, hybridoma-derived) (antibody, V domains shown)
VH: QVQLVESGGGVVQPGGSLRLSCAASGFTFGSYGMHWVRQAPGKGLEWVAVIWYDGSNEYYADSVKGRFTVSRDNSKHTLYLQMNRLRAEDTAVYYCARDLDYDSSGGDYWGQGILVLVSS
VL: EIVLTQSPDFQSVTPKEKVTITCRASQNIGGNLHWYQQKPDQSPKLLIRYATQPFSGVPSRFGGSGSGTDFTLTINSLEAEDAATYYCHQSSSLPLTFGGGTKVEIK
notes: also called clone 1H8
B2: 1H10 antibody (human CD33^PAN antibody clone, hybridoma-derived) (antibody, V domains shown)
VH: QVQLVQSGAEVKKPGASVKVSCKGSGYIFTSYDMHWVRQAPGQGLEWMGIIDPSGGSTSYAQKFQGRVTMTRDTSMSTVYMELSSLRSEDTAVYYCTRDYSWSYFDYWGQGTLVTVSS
VL: AIQMTQSPSSLSASVGDRVTITCRASQGIRIYLGWYQQKPGKAPKLLIYATSSLQSGVPSRFSGSGSGTDFTLTISSLQPEDFATYYCLQDYNYPWTFGQGTKVEIK
notes: also called clone 1H10
B3: 2D3 antibody (human CD33V-set antibody clone, hybridoma-derived) (antibody, V domains shown)
VH: EVQLLESGGGLVQPGGSLSLSCAASGFTFSIYAMSWVRQAPGKGLEWVSAISDSGGTTYYADSVKGRFTISRDNSKNMLYLEMNSLRAEDTAIYYCAKRTRYFNGMDVWGQGTTVTVSS
VL: EIVMTQSPATLSLSPGERATLSCRASQSGSSSFLSWYQQKPGQAPRLLIYGASTRATGIPARFSGSGSGTDFTLTISSLQPEDFAVYYCQQDYNLPFTFGPGTKVDIK
notes: also called clone 2D3
B4: 1A9 antibody (human CD33^PAN antibody clone, hybridoma-derived) (antibody, V domains shown)
VH: EVQLVESGGGLVQPGGSLRLSCAASGFTFSIYDMHWVRQATGKGLEWVSAIGTAGDTYYAGSVKGRFTISRENAKNSLYLQMNSLRAGDTAVYYCAREYSGYYFDYWGQGTLVTVSS
VL: B2 VL with G28D, I31N, Y32D, L46I, A50G, T51A, L73F, D91E, W96C, V104L
notes: also called clone 1A9
B5: 1E6 antibody (human CD33^PAN antibody clone, hybridoma-derived) (antibody, V domains shown)
VH: QVQLVESGGGVVQPGRSLRLSCAASGFTFSSYDIHWVRQAPGKGLEWVAVIWYDGSHNYYSDSVKGRFTISRDNSKNTLYLQMNSLRAEDTAVYYCARDYSGSYYDYWGQGTLVTVSS
VL: B2 VL with I31N, Y32D, T51A, S53N, N93S, W96R
notes: also called clone 1E6
B6: 1D2 antibody (human CD33^PAN antibody clone, hybridoma-derived) (antibody, V domains shown)
VH: B5 VH with H57Q, N58K, S61A
VL: B2 VL with I31N, Y32D, K45E, T74I, N93S, W96R
notes: also called clone 1D2
B7: 1B9 antibody (human CD33^PAN antibody clone, hybridoma-derived) (antibody, V domains shown)
VH: B5 VH with T28I, Y105F
VL: B2 VL with G28D, I31N, Y32D, Q37L, K39R, T51A, N93S, W96R, K103T
notes: also called clone 1B9

Target: T1, human full-length CD33 (CD33^FL) (human, UniProt P20138 18-364)
T1 construct: also called Siglec-3
T1 sequence (P20138 18-364): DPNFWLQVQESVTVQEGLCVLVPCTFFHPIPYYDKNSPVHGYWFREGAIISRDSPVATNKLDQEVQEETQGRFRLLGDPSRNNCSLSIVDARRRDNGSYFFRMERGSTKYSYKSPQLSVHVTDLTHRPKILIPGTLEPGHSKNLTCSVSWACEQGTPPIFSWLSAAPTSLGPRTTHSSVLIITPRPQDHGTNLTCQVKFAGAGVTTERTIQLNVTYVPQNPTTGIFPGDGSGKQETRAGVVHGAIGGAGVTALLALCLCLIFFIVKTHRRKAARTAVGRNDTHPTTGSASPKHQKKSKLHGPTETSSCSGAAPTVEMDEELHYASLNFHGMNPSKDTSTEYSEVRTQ
Assay: flow cytometry on REH subline expressing CD33^FL

Row | Binder | binding result
1 | B1 | binds
2 | B2 | binds
3 | B3 | binds

Target: T1, human full-length CD33 (CD33^FL)
Assay: flow cytometry on parental CD33+ ML-1 cells against ML-1 CD33 KO cells (endogenous CD33)

Row | Binder | binding result
4 | B4 | binds
5 | B5 | binds
6 | B6 | binds
7 | B7 | binds
